Measurements taken from US5807729A, “Metalloprotease having increased activity” (Novo Nordisk A/S, priority 1995, dated 1998).

Key:
[1] = test system: pro-trypsin-like F. oxysporum protease; experiment: Second pH profile, pro-trypsin-like F. oxysporum protease assay; assay type: biochemical, Fusarium oxysporum; settings: 15 minutes, room temperature
Experimental: A second pH profile is determined utilizing the pro-trypsin-like F. oxysporum protease assay whereby p45 metalloprotease activity is determined based on the processing of pro-trypsin-like F. oxysporum protease to active trypsin-like F. oxysporum protease Reaction mixtures contain 125 ug of purified pro-trypsin-like F. oxysporum protease and 0.13 ug of purified p45 metalloprotease (i.e. a molar ratio of pro-trypsin-likeF. oxysporum protease/ p45=1750:1) are added to "universal-buffer" solutions prepared at different pH's (i.e. pH values of 2.72, 4.11, 5.2, 6.05, 6.46, 6.98, 8.18, 9.02, 10.03, and 11.01) and the reaction mixtures are incubated for 15 minutes at room temperature. After incubation, 5 microliters are taken from each sample and added to microtiter wells containing 90 microliters of sample buffer (i.e. 0.1M borate, 2 mM CaCl2, and 10 mM DMG, pH 6.5), and 10 microliters of phosphoramidon (20 ug). […] Phosphoramidon is added to inhibit p45 activity and stop any further maturation of pro-trypsin-like F. oxysporum protease.

[2] = test system: FAGLA: N-(3-[2-Furyl]Acryloyl)-Gly-Leu amide; experiment: FAGLA hydrolysis (345 nm); assay type: biochemical
Experimental: The thermolytic substrate FAGLA: N-(3-[2-Furyl]Acryloyl)-Gly-Leu amide is used to further characterize the p45 metalloprotease and B.t. thermolysin. Reaction mixtures contain 100 microliters of N-(3-[2-Furyl]Acryloyl)-Gly-Leu amide (FAGLA) (2 mM) and 100 microliters of various concentrations of either thermolysin (Boehringer Mannheim) or purified p45 metalloprotease. Thermolytic activity is determined as a decrease in absorbance at 345 nm on the recording spectrometer for one minute(Shimadzu, UV160U). The linear range of the assay for thermolysin is 10-500 ug/ml thermolysin in the assay mix.

FTC-labeled casein = experiment: Protease analysis using FTC-labeled casein; assay type: biochemical
Experimental: Samples are incubated at room temperature for 30 minutes.

B1: p45 Metalloprotease: metalloprotease purified from Fusarium oxysporum DSM 2672 broth, 45 kDa band; also produced recombinantly in A. oryzae (protein)
chain: MRFSDSLLLIGLSSLAGAHPSRRAPNPSPLSKRGLDLEAFKLPPMAEYVPQDEVPDDVSAKVVTKRADYTETAKDLVKSTFPKATFRMVTDHYVGSNGIAHVNFKQTVNGIDIDNADFNVNIGADGEVFSYGNSFYEGKIPGPLTKRDEKDPVDALKDTVDVLSLPVEADKAKAEKKSKNHYTFTGTKGTVSKPEAKLTYLVDENKELKLTWRVETDIVDNWLLTYVNAAKTDEVVGVVDYVNEATYKVYPWGVNDPSKGSRSTVENPWNLAASEFTWLSDGSNNYTTTRGNNGIAQVNPSGGSTYLNNYRPDSPSLKFEYDYSTSTTTPTTYRDASIAQLFYTANKYHDLLYLLGFTEQAGNFQTNNNGQGGVGNDMVILNAQDGSGTNNANFATPADGQPGRMRMYLWTYSTPQRDCSFDAGVVIHEYTHGLSNRLTGGPANSGCLPGGESGGMGEGWGDFMATAIHIQSKDTRASNKVMGDWVYNNAAGIRAYPYSTSLTTNPYTYKSVNSLSGVHAIGTYWATVLYEVMWNLIDKHGKNDADEPKFNNGVPTDGKYLAMKLVVDGMSLQPCNPNMVQARDAIIDADTALTKGANKCEIWKGFAKRGLGTGAKYSASSRTESFALPSGC
**Q.** Which results are given for B1?
**A.** level of processed pro-trypsin-like protease at pH 6.5 relative to the level at pH 9 [1]: approximately 24%; pH of maximum levels of processed pro-trypsin-like protease ([1]; molar ratio pro-trypsin/p45 1750:1): 9.5; Specific Activity, substrate FAGLA [2]: 0.76 -AU/sec*mg; specific activity for FAGLA, times lower than that of thermolysin [2]: approximately 250 times; Specific Activity, substrate FTC-Labelled Casein (FTC-labeled casein): 170 FU/min*mg; FTC-casein hydrolysis relative to trypsin-like F. oxysporum protease (FTC-labeled casein; on a molar basis at pH 9): approximately 16 fold
